For one molecule, percent reduction of co-immunoprecipitated GFP-Bicc1 relative to WT HA-Bicc1 results are on record in paper doi:10.1101/2021.10.07.463531.

This assay concerns the target HA-Bicc1 with mutation D or with deletion of the KH tandem repeat. Kind of assay: co-IP.

B1: GFP-Bicc1 (natural protein)
chain: MASQSEPGYLAAAQSDPGSNSERSTDSPVAGSEDDLVAAAPLLHSPEWSEERFRVDRKKLEAMLQAAAEGKGRSGEDFFQKIMEETNTQIAWPSKLKIGAKSKKDPHIKVSGKKEDVKEAKEMIMSVLDTKSNRVTLKMDVSHTEHSHVIGKGGNNIKKVMEDTGCHIHFPDSNRNNQAEKSNQVSIAGQPAGVESARARIRELLPLVLMFELPIAGILQPVPDPNTPSIQHISQTYSVSVSFKQRSRMYGATVTVRGSQNNTNAVKEGTAMLLEHLAGSLASAIPVSTQLDIAAQHHLFMMGRNGSNVKHIMQRTGAQIHFPDPSNPQKKSTVYLQGTIESVCLARQYLMGCLPLVLMFDMKEDIEVDPQVIAQLMEQLDVFISIKPKPKQPSKSVIVKSVERNALNMYEARKCLLGLESSGVSIATSLSPASCPAGLACPSLDILASAGLGLTGLGLLGPTTLSLNTSATPNSLLNALNTSVSPLQSSSSGTPSPTLWAPPIANTASATGFSTIPHLMLPSTAQATLTNILLSGVPTYGHTAPSPPPGLTPVDVHINSMQTEGKNISASINGHVQPANMKYGPLSTSSLGEKVLSSNHGDPSMQTAGPEQASPKSNSVEGCNDAFVEVGMPRSPSHSGNAGDLKQMLGASKVSCAKRQTVELLQGTKNSHLHGTDRLLSDPELSATESPLADKKAPGSERAAERAAAAQQKSERARLASQPTYVHMQAFDYEQKKLLATKAMLKKPVVTEVRTPTNTWSGLGFSKSMPAETIKELRRANHVSYKPTMTTAYEGSSLSLSRSSSREHLASGSESDNWRDRNGIGPMGHSEFSAPIGSPKRKQNKSREHYLSSSNYMDCISSLTGSNGCNLNSCFKGSDLPELFSKLGLGKYTDVFQQQEIDLQTFLTLTDQDLKELGITTFGARRKMLLAISELSKNRRKLFEPPNASCTSFLEGGASGRLPRQYHSDIASVSGRW
B1 yielded a percent reduction of co-immunoprecipitated GFP-Bicc1 relative to WT HA-Bicc1 of 60 to 75%.
